Drawing on US20250084163A1 (published 2025), this text covers Kd for four molecules.

Positions count from the first letter of the chain named. Read-outs that look alike come from different tables or passages of the source.

What all share (experiment): SPR
A general note: Surface plasmon resonance follows binding to a sensor surface in real time, without labels.

Experiment [1] has as its target T1, Recombinant truncated human his-tag ROR1 extracellular domain protein (UniProt Q01973 30-403).
Experiment [2] addresses T1, Recombinant truncated human his-tag …. This is another data set of the same source.
The target is the same in experiment [3]. This is another data set of the same source.

T1 sequence (Q01973 other isoform, or with tags, fused parts or gaps): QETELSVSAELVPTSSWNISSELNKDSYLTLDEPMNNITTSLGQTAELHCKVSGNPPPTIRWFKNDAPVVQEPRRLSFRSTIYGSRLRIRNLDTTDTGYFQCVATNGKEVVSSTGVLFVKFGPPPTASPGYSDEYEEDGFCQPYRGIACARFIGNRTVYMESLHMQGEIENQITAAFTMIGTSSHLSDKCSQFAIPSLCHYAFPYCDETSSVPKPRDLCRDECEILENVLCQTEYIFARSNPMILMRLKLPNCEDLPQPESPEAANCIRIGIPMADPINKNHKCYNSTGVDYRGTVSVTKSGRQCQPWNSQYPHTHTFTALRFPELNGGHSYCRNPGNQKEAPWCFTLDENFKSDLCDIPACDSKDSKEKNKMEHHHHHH

B1: RO6D8-jlv1011 (antibody, V domains shown)
VH: QVQLVQSGAEVKKPGASVKVSCKASGYTFTSKYYHWVRQAPGQGLEWMGIINPTSGSTSYAQKFQGRVTMTRDTSTSTVYMELSSLRSEDTAVYYCARDSSRYSGWYFDLWGQGTTVTVSS
VL: AIQLTQSPSSLSASVGDRVTITCRASQGVSTEIAWYQQKPGKAPKLLIYAASSLQSGVPSRFSGSGSGTDFTLTISSLQPEDFATYYCQQYYGYPIAFGQGTRLEIK
In the case of B1, the dissociation constant Kd in experiment [1] and in experiment [2] was 0.796 nM in each case.

B2: RO6D8-011 (antibody, V domains shown)
VH: QVQLVQSGAEVKKPGASVKVSCKASGYTFTNYYMHWVRQAPGQGLEWMGIINPTSGRTSYAQKFQGRVTMTRDTSTSTVYMELSSLRSEDTAVYYCARDSSSWYSGWYFDLWGQGTTVTVSS
VL: B1 VL with L4M, V29I, S30R, E32D, I33L
As for B2, the Kd in experiment [1] and in experiment [2] was 2.48 nM in each case.

B3: RO6D8wt (antibody, V domains shown)
VH: B2 VH with T54S, S55G, R57S
VL: B1 VL with L4M, G28D, S30R, T31A, E32H, I33L, Y91F, Y92N, G93S, A97T
As for B3, the Kd in experiment [3] and in experiment [2] was 118 nM in each case.

B4: RO6D8-s10 (antibody, V domains shown)
VH: B2 VH with T54S, S55G, R57S, D99S, S101R, W103S, S105Y, G106L, Y108V, F109L
VL: B1 VL with L4M, Y91F, Y92N, G93S, A97T
For B4, the Kd in experiment [3] and in experiment [2] was 2.46 nM throughout.
